For one substance, inhibition of vitronectin-induced migration of endothelial cells (transwell) and inhibitory concentration for 50% maximal adhesion (M21 cell adhesion to fibrinogen) results are on record in patent publication US20030028009A1.

The target of the assay is integrin αvβ3 expressed on cells (human) (UniProt P06756). Kind of assay: cell-based or functional assay.
Chain of integrin αvβ3 expressed on cells (human) (P06756 31-1048, chain 1 of 2): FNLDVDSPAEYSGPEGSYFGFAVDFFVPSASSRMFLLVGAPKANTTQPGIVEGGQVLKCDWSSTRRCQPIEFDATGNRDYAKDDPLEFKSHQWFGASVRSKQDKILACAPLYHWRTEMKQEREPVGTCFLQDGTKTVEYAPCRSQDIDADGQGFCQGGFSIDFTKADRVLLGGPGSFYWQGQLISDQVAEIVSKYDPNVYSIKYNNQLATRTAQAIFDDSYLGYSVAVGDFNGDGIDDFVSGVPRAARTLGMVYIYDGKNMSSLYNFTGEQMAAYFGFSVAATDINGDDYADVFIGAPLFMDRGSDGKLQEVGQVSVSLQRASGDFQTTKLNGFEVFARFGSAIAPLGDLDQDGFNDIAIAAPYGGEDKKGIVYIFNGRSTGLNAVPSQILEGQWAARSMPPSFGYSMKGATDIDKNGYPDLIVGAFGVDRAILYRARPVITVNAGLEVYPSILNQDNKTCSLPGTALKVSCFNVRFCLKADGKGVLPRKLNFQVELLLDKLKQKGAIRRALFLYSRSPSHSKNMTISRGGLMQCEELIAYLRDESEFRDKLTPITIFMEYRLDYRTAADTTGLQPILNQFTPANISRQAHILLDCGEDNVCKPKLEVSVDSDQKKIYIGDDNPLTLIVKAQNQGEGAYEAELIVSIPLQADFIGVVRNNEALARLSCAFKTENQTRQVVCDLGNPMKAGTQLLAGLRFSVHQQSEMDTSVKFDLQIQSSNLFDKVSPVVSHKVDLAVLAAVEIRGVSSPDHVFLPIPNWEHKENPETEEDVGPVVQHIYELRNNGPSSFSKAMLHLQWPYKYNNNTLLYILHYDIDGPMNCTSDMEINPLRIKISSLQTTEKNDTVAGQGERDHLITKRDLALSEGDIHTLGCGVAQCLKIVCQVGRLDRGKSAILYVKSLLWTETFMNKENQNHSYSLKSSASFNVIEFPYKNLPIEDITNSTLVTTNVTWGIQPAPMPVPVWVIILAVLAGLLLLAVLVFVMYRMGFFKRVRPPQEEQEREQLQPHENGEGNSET
Chain of integrin αvβ3 expressed on cells (human) (P05106 27-788, chain 2 of 2, further chain): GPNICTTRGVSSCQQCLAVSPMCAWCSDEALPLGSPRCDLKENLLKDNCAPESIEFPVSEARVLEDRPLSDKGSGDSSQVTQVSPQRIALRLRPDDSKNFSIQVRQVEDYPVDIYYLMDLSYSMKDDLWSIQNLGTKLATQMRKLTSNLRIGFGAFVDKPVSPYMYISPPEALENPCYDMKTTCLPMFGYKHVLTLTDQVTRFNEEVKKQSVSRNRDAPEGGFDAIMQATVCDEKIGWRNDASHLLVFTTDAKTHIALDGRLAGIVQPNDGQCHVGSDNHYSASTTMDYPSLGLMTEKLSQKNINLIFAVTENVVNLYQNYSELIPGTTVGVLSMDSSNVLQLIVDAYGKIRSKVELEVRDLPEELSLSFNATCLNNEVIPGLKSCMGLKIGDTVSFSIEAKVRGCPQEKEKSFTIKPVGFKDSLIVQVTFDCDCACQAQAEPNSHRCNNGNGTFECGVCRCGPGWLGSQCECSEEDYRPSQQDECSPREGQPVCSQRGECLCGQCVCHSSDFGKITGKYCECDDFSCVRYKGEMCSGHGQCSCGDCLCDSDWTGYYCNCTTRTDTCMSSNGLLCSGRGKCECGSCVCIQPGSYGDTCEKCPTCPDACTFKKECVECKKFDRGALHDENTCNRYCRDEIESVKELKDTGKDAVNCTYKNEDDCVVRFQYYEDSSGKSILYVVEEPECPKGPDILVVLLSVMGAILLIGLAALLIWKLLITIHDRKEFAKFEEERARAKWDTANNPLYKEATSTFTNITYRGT

In turn, monoclonal antibody LM609 (murine IgG) registered an inhibition of vitronectin-induced migration of endothelial cells (transwell) of 60% and an inhibitory concentration for 50% maximal adhesion (M21 cell adhesion to fibrinogen) of 50 ng/mL.
